Data: patent US20240141372A1, “TRANSGENIC BANANA PLANTS HAVING INCREASED RESISTANCE TO FUSARIUM OXYSPORUM TROPICAL RACE 4 AND METHODS OF PRODUCING SAME” (Elo Life Systems, priority 2022, published 2024)
Where a chain is given by its changes, count along the chain named.

B1: Ma07_p17800.1: TLP antimicrobial protein, Musa acuminata (protein, listed as Musa acuminata)
chain: ATFDIVNQCSFTVWAAAVPGGGRQLDPSQTWSINVNPGTTGGRVWARTDCSFDGSGSGSCQTGDCGGLLECQGYGTPPNTLAEFALNQFQNMDFIDISLVDGFNVPMDFSPTSGDCRGIRCSADINGQCPAELRAPGGCNNPCTVFKTDEYCCTSGSCGPTNYSMFFKNNCPDAYSYPKDDATSTFTCPGGTNYRVVFCP
B2: Ma03_p07220.1: TLP antimicrobial protein, Musa acuminata (protein, listed as Musa acuminata)
chain: ATLALYNKCRETVWPGIQPSAGKAVLARGGFQLLPNQAYSLRLPAGWSGRVWGRRGCAFDPATGRGRCATGDCGGALYCNGLGGAPPATLAEFTLGQGRQQDFYDVSLVDGYNLGMSMTPFRGSGQCGRAGCVSDLNEVCPAGLAVRGGTDNRVVACKSACSAFGSPRYCCTGSFGGPQQCKPTAYSRLFKAACPRAYSYAYDDPTSILTCTGASYLVTFCPQH
B3: Ma08_p22790.1: snakin antimicrobial protein, Musa acuminata (protein, listed as Musa acuminata)
chain: RISLAPTAQPGNPLGPTPQPIKFPMYGATPGSLQPQECSGRCAGRCSATAYKKPCMFFCQKCCAKCLCVPPGTYGNKQVCPCYNNWKTKRGGPKCP
B4: Ma09_p27770.1: snakin antimicrobial protein, Musa acuminata (protein, listed as Musa acuminata)
chain: GSLKPSECNNKCDFRCSATSHKKPCLFFCKECCATCLCVPPGTYGNKEACPCYNNWKTKEGGPKCP
B5: Ma06_p20150.1: snakin antimicrobial protein, Musa acuminata (protein, listed as Musa acuminata)
chain: EREINCEAKCSHRCSKASRHKMCMRACVDCCHKCHCVPPGTYGHKEECPCYAHMKTRHGKPKCP
B6: Ma10_p18110.1: snakin antimicrobial protein, Musa acuminata (protein, listed as Musa acuminata)
chain: GSAFCGSKCKVRCSKASVKDRCLKYCGLCCEQCRCVPSGTYGHKDECPCYRDKYTGSGKRRRPKCP
B7: Ma09_p26730.1: TLP antimicrobial protein, Musa acuminata (protein, listed as Musa acuminata)
chain: ATFEIVNWCPFTVWAAAVPGGGRQLDRGQTWVLDVNPGTTGGRIWARTGCSFDGSGSGSCQTGDCGGVLACQGYGSPPNTLAEFALNQFDNLDFLDVSLVDGFNVPMEFSPITGNCSAIRCLADIKGQCPAELWTPGGCNNPCTVFKTDEYCCTSGSCGPTNYSNFFKSNCPDAYSYPKDDATSTFTCPGNGDYKVIFCPSDGYPTRFGRTAVRFVIPRA
B8: Ma04_p17200.1: LTP antimicrobial protein, Musa acuminata (protein, listed as Musa acuminata)
chain: ITCGQVTSALSSCISYATGKGPLSTACCSGVKSLNSAAKTTADRKTACTCIKSTVSRLSGAQAGAIAGIPGKCGVSIGYPISASTDCSKVK
B9: Ma11_p18240.1: LTP antimicrobial protein, Musa acuminata (protein, listed as Musa acuminata)
chain: AIGCGQIISYLIPCLGYAQGTGPLTDGCCSGVRALNGAAQTTPDRQATCNCLKRSAAGVSGIQPGLIAGIPSKCGINVPYRISPSTDCSRVR
B10: Ma06_p00870.1: snakin antimicrobial protein, Musa acuminata (protein, listed as Musa acuminata)
chain: KDLPAEEFGVSLAEKGHKHKHSGFSEAECPGACQYRCSKTAYKKPCLFFCQKCCFKCRCVPPGTYAHKEVCPCYNNWKTKRGGPKCP
B11: Ma09_p21930.1: LTP antimicrobial protein, Musa acuminata (protein, listed as Musa acuminata)
chain: VTCNPLELSPCSSAVLSGARPSAACCAKLKEQQPCFCQYKKNPSLKDYVNSDNGKKALKACGVPIPSC
B12: Ma09_p13940.1: snakin antimicrobial protein, Musa acuminata (protein, listed as Musa acuminata)
chain: RKAVVEDEPPVSGGGDGKPPVPVIDCAGLCGVRCSRHSRPNLCKRACGTCCFRCKCVPPGTSGNREMCGACYTNMTTHGNRTKCP
B13: Ma02_p17990.1: TLP antimicrobial protein, Musa acuminata (protein, listed as Musa acuminata)
chain: QYPAMTLTVVNNCPFTVWPAIQPNSGHDVLERGGFALPTVTHRSFPAPTQHWSGRIWARTGCTYANGRFSCATGDCGGRLECGGLGGAAPATLAQVTLHHGGQQDLSSYGVSLVDGFNVGMTVTPHEGKGRCPVVGCRENLLATCPDVLQLRAPAGGGQVVGCKSGCQAFGTDELCCRNMYNSPRTCRASSYSEFFKHACPATFTYAHDSPSLTHECAAPRELKVIFCH
B14: Ma06_p09450.1: snakin antimicrobial protein, Musa acuminata (protein, listed as Musa acuminata)
chain: ADSAYCKSKCKVRCAKAGVMDRCLYYCGMCCEECKCVPSGTYGNKDECPCYRDKVTKDDKKKSKCP
B15: Ma07_p21450.1: snakin antimicrobial protein, Musa acuminata (protein, listed as Musa acuminata)
chain: KDAFMEAGYAKAPVVAPVPAPPAPRIIKDTKECGDACKDRCKLHSRQNVCSRACITCCSVCKCVPPGTYGHTELCGKCYTDWKTHGNRTKCP
B16: Ma04_p17240.1: LTP antimicrobial protein, Musa acuminata (protein, listed as Musa acuminata)
chain: ITCSQVYGDLISCVGYLQGGPIKQQCCSGIKSLIAAARTTQDRRTACGCIKTAAAGLSGIDYGRVSQLPGQCGISVSYKISPNVDCSKIN
B17: Ma04_p17190.1: LTP antimicrobial protein, Musa acuminata (protein, listed as Musa acuminata)
chain: B16 chain with Q41K
B18: Ma06_p33170.1: TLP antimicrobial protein, Musa acuminata (protein, listed as Musa acuminata)
chain: NFEIVNRCSYTVWAAAVPGGGRQLNQGQSWTINVKAGTTGGRIWGRTGCSFDGSGHGRCQTGDCGGLLACTAYGSPPNTLAEFALNQYSNQDYVDISLVDGFNVPMDFSPTSGGCRGMRCTADINKKCPTALKAPGGCNNPCTVFKTDQYCCNSGSCQPTEYSKFFKSNCPDAYSYPKDDPTSLVACPGGTNYRVVFCP
B19: Ma06_p33150.1: TLP antimicrobial protein, Musa acuminata (protein, listed as Musa acuminata)
chain: TFEIVNRCSYTVWAAAVPGGGRQLNQGQSWTINVNAGTTGGRIWGRTGCSFDGSGRGRCQTGDCGGVLSCTAYGSPPNTLAEFALNQFNNLDFFDISLVDGFNVPMDFSPTSGGCRGIRCAADINGQCPGALKAPGGCNNPCTVFKTDQYCCNSGSCSPTDYSRFFKRNCPDAYSYPKDDQTSTFTCPGGTNYRVVFCP
B20: Ma02_p13180.1: TLP antimicrobial protein, Musa acuminata (protein, listed as Musa acuminata)
chain: ATFTLTNNCEYTVWPGVLSSAGTAPLSITGFALQQGESRSLDVPAAWSGRFWGRTLCAADASGKFSCGTGDCGSGAVECSGSGAAPPATLAEFTLDGSGGMDFYDVSLVDGYNLPMLVVPQGGSGGACSSTGCLVDLNGVCPSDLKVVLPTSEGGSESVACRSACETFGSPQYCCSGDYGNPNTCKPSSYSQFFKNACPRAYSYAYDDATSTFTCASANYLITFCPSTTSQKSSDSNPEAAGIPSSNNSTMIYSSEEVSHATPTVPRVAVALALAVVALCLGF
B21: Ma04_p30830.1: LTP antimicrobial protein, Musa acuminata (protein, listed as Musa acuminata)
chain: ATCNPTELTPCAAAILKSSPPSSLCCSKLKSQAPCFCQYQKNPSLSRYISGGRKVAAACGVPVPSC

system: Foc_TR4; test: In vitro spore germination and mycelial growth assay; assay type: cell-based, Fusarium oxysporum f.sp. cubense Tropical Race 4; details: Foc_TR4 spores, purified Pichia-secreted protein, low ionic strength media, 25° C., A595 at 48 hours; read-out: IC50 (μM, CE fraction)

**Q.** With “GB ID: RRT50697.1: defensin antimicrobial protein, Musa acuminata (RTCESASSRFKGTCVRSSNCASVCQGEGFPDGRCEGLRRRCMCRKPC; listed as Musa acuminata)” as the molecule, how does the IC50 read?
**A.** 0.51 ± 0.01 µM

**Q.** Which IC50 does the source give for “Ma02_p12840.1: defensin antimicrobial protein, Musa acuminata (RTCESQSHKFVGPCVRKANCGNVCQTEGFHGGVCRGSLIHRKCYCTKNC; listed as Musa acuminata)” here?
**A.** 0.86 ± 0.07 µM

**Q.** For “Ma04_p36140.1: defensin antimicrobial protein, Musa acuminata (RTCESASTRFKGTCVRSSNCASVCQGEGFPDGKCEGVRRRCMCRKPC; listed as Musa acuminata)”, which IC50 is on record?
**A.** 0.84 ± 0.06 µM

**Q.** For “Ma06_p21420.1: defensin antimicrobial protein, Musa acuminata (KICRLPSIGFRGPCTSDKNCAKVCRREGFDSGDCEGYTMGCLCNKHC; listed as Musa acuminata)”, which IC50 is on record?
**A.** 3 ± 0.17 µM

**Q.** “Ma08_p13660.1: defensin antimicrobial protein, Musa acuminata (RKCESASHKFKGLCFRASNCANVCKTEGFHGGHCRGLRRRCFCTKHCNSAT; listed as Musa acuminata)” was tested. Which IC50 did it give?
**A.** > 25 µM

**Q.** “Ma11_p12930.1: defensin antimicrobial protein, Musa acuminata (RVCRYASRSFRGLCFSDTNCAHVCQTEGFNGGHCHGLRRRCMCLRRGC; listed as Musa acuminata)” was tested. Which IC50 did it give?
**A.** 0.17 ± 0.006 µM

**Q.** With “Mba02_g12080.1: defensin antimicrobial protein, Musa acuminata, without yeast signal peptide (RTCESQSHKFVGPCVREANCANVCHTEGFHGGVCRGTLIHRKCYCTKNC; listed as Musa acuminata)” as the molecule, how does the IC50 read?
**A.** 6 ± 0.59 µM

**Q.** Which IC50 does the source give for B1 here?
**A.** > 25 µM

**Q.** Which IC50 does the source give for B2 here?
**A.** 0.009 ± 0.0005 µM

**Q.** For B3, which IC50 is on record?
**A.** 0.52 ± 0.08 µM

**Q.** How did the IC50 turn out when B4 was run?
**A.** 0.08 ± 0.003 µM

**Q.** With B5 as the molecule, how does the IC50 read?
**A.** 0.53 ± 0.01 µM

**Q.** With B6 as the molecule, how does the IC50 read?
**A.** 1.31 ± 0.03 µM

**Q.** How did the IC50 turn out when B7 was run?
**A.** > 31 µM

**Q.** With B8 as the molecule, how does the IC50 read?
**A.** 2.09 ± 0.06 µM

**Q.** For B9, which IC50 is on record?
**A.** 2.25 ± 0.16 µM

**Q.** Which IC50 does the source give for B10 here?
**A.** > 16 µM

**Q.** Which IC50 does the source give for B11 here?
**A.** 1.86 ± 0.08 µM

**Q.** Which IC50 does the source give for B12 here?
**A.** 0.38 ± 0.01 µM

**Q.** With B13 as the molecule, how does the IC50 read?
**A.** 0.64 µM

**Q.** With B14 as the molecule, how does the IC50 read?
**A.** 2.71 ± 0.53 µM

**Q.** How did the IC50 turn out when B15 was run?
**A.** 0.9 ± 0.05 µM

**Q.** With B16 as the molecule, how does the IC50 read?
**A.** 1.92 ± 0.13 µM

**Q.** Which IC50 does the source give for B17 here?
**A.** 3.47 ± 0.21 µM

**Q.** Which IC50 does the source give for B18 here?
**A.** 0.052 ± 0.002 µM

**Q.** With B19 as the molecule, how does the IC50 read?
**A.** 0.029 ± 0.001 µM

**Q.** B20 was tested. Which IC50 did it give?
**A.** > 30 µM

**Q.** With B21 as the molecule, how does the IC50 read?
**A.** 6.34 ± 0.23 µM
